Source: patent publication US20200140551A1 (GlaxoSmithKline, published 2020)

T1: human ICOS (human, UniProt Q9Y6W8 21-140, limits assumed)
T1 sequence: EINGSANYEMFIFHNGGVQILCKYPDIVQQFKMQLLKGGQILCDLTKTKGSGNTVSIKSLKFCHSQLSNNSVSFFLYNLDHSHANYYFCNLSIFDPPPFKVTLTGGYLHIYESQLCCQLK

T2: cynomolgus ICOS (cynomolgus, UniProt A0A2K5TQR6 21-140)
T2 construct: also called cyno ICOS; not shown: Carrier of the soluble construct, if any
T2 sequence: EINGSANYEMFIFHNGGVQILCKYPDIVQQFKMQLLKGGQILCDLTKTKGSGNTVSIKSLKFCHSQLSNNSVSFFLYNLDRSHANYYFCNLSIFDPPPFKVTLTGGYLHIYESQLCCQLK


Key:
[1] = target: T1, human ICOS; test: Biacore (SPR), human ICOS; format not described
[2] = target: T2, cynomolgus ICOS; test: Biacore (SPR), cyno ICOS; format not described

Row | Binder | Kd [1] [nM] | Kd [2] [nM]
1 | murine anti-human ICOS mAb clone 422.2 (antibody, V domains shown, also called hybridoma clone 422.2) VH: QVQLQQSGPELVRPGESVKISCMGSGYTFTDYAMHWVKQSHAKSLEWIGLISIYSDHTNYNQKFQGKATMTVDKSSSTAYMELARLTSEDSAIYYCGRNNYGNYGWYFDVWGAGTTVTVSS VL: ENVLTQSPAIMSASPGEKVTMTCSASSSVSYMHWYQQKSITSPKLWIYDTSKLASGVPGRFSGSGSGNSYSLTISSMEAEDVATYYCFQGSGYPYTFGGGTKLEIKR | 5.7 | 4.46
2 | murine anti-human ICOS mAb clone 88.2 (antibody, V domains shown) VH: QVQLQQPGAELVRPGASVKLSCKASGYSFTSYWINWVKQRPGQGLEWIGNIYPSDSYTNYNQMFKDKATLTVDKSSNTAYMQLTSPTSEDSAVYYCTRWNLSYYFDNNYYLDYWGQGTTLTVSS VL: QAVVTQESALTTSPGETVTLTCRSSTGAVTTSNYANWVQEKPDHLFTGLIGGTNNRAPGVPARFSGSLIGDKAALTITGAQTEDEAIYFCALWYNNHLVFGGGTKLTVL | 31 | 23
